Data on seven molecules can be found in article PMC6638984, “Increased association between Epstein-Barr virus EBNA2 from type 2 strains and the transcriptional repressor BS69 restricts EBNA2 activity” (PLoS Pathogens, 2019).

Where two headings read alike, the source gives them in different places.

This experiment has as its target T1, BS69CC-MYND (BS69 amino acid 480–602, CC-MYND domain) (Homo sapiens, UniProt Q15326).
T1 construct: The BS69 CC-MYND domain (amino acids 480–602) was amplified from pCI-BS69; GST (N, cleaved yes); 6xHis (N, cleaved yes); made in house; host or cells: E. coli Rosetta 2 (DE3) pLysS
T1 sequence (Q15326 480-602): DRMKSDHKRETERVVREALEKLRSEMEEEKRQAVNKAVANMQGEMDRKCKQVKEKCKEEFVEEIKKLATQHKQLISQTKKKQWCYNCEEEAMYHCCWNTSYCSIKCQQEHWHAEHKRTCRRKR
The experiment in a line: Isothermal titration calorimetry (ITC) of EBNA2 peptides and polypeptides binding to BS69CC-MYND. Particulars: mean ± SD of 3 independent experiments; for Kd: pH 7.5, 29 injections of 1.3 μl 0.3 mM EBNA2 polypeptide into 0.1 mM BS69CC-MYND; for -TΔS, event 1, two-site model / -TΔS, event 2, two-site model / n value, event 1, two-site model / n value, event 2, two-site model / ΔG, event 1, two-site model / ΔG, event 2, two-site model / ΔH, event 1, two-site model / ΔH, event 2, two-site model: 29 injections. The source says:
We hypothesised that the impaired gene activation and growth maintenance properties of type 2 EBNA2 may be the result of increased binding to BS69 as a result of the aspartate to serine amino acid difference adjacent to BS69 binding motif 2. […] We used isothermal titration calorimetry (ITC) to determine the affinity of peptide binding to the C-terminal region of BS69 (amino acid 480–602) comprising the CC-MYND domain that we expressed and purified from E.coli (Fig 1B and 1C). […] The difference in binding between type 1 and type 2 EBNA2 motif 2 peptides could be influenced by both the aspartate to serine change and differences in two other amino acids present in the sequence (Fig 1B and 1C).
The BS69 CC-MYND domain (amino acids 480–602) was amplified from pCI-BS69 containing the full length human BS69 sequence (gift from Dr Stéphane Ansieau) and cloned using SLIC into the SmaI and HindIII sites of pET49b+ to generate a construct expressing an N-terminal GST-6x Histidine tag BS69CC-MYND fusion protein (S2 Table).
Four commercially synthesized peptides (Peptide Synthetics) were used for ITC. These included BS69 binding motif 2 of type 1 EBNA2 (435–445) or type 2 EBNA2 (402–412) and putative BS69 binding motif 3 of type 1 EBNA2 (445–455) or type 2 EBNA2 (412–422).
Frozen protein was quickly thawed using running water and dialysed overnight at 4°C using Slide-A-Lyzer MINI Dialysis Units (Thermo Scientific) against ITC buffer (20mM Tris-HCl, 100mM NaCl and 1mM TCEP, pH 7.5). The next day, protein samples were centrifuged at 13000 rpm for 10 mins at 4 °C and the concentration was determined by NanoDrop spectroscopy (NanoDrop Technologies) with their respective molecular weights and extinction coefficients. EBNA2 peptides (1mM) and polypeptides (type 1, 0.3 mM and type 2, 0.6 mM) were titrated against BS69CC-MYND (0.1mM) at 25°C using a MicroCalTM iTC200 instrument (Malvern). For peptides, 13 x 3.0 μl injections were used for titration. For EBNA2 polypeptides 19 x 2.0 μl or 29 x 1.3 μl injections were used for titration. ITC data were corrected for non-specific heat and analysed using MicroCal Origin 7.0. The experiments were performed in triplicate alongside a control experiment with no BS69CC-MYND (buffer only in the cell). All polypeptides were used within 24 hrs of dialysis into ITC buffer.
In general terms: In ITC the heat of successive injections is recorded.

Setting [1] is: 25°C, pH 7.5, peptides 13 injections, polypeptides 19 injections.
The mark [2] stands for this setting: 25°C, read-out: KD1 (binding event 1), two-site (two event) binding model.
Setting [3] is: 25°C, read-out: KD2 (binding event 2), two-site (two event) binding model.

B1: T2 EBNA2_348-412: type 2 EBNA2 polypeptide, amino acids 348–412, expressed and purified from E.coli (protein)
chain: SMPQLSPVVSLHQGQGPENSPTPGPSTAGPVCRVTPSATPDISPIHEPESSDSEEPPFLFPSDWY
modifications: left off: His6, N-terminal, cleaved
notes: type 2 EBNA2 polypeptide, amino acids 348–412, expressed and purified from E.coli
Consider B1, for which, under setting [1], the “-TΔS, one-site model” value worked out at 60.2 kJ/mol and the “ΔG, one-site model” value was -33.8 ± 0.25 kJ/mol. Further, the “-TΔS, one-site model” value (25°C, pH 7.5, peptides 13 injections, polypeptides 19 injections, listed as T2 EBNA2348-412) stood at 60.2 ± 10.4 kJ/mol.

B2: EBNA2_348-422 SD + m3 T1: type 2 EBNA2 polypeptide 348–422 containing both the SD and motif 3 (PSIDP) mutations (protein)
chain: SMPQLSPVVSLHQGQGPENSPTPGPSTAGPVCRVTPSATPDISPIHEPESSDSEEPPFLFPDDWYPPSIDPAELD
modifications: left off: His6, N-terminal, cleaved
notes: type 2 EBNA2 polypeptide 348–422 containing both the SD and motif 3 (PSIDP) mutations
In the case of B2, the “-TΔS, event 1, two-site model” value turned out to be 87.9 ± 3.97 kJ/mol; the “-TΔS, event 2, two-site model” value is -19.3 ± 8.41 kJ/mol; the “n value, event 1, two-site model” value is 0.20 ± 0.01; the “n value, event 2, two-site model” value came to 0.20 ± 0.08. For the same molecule, the “ΔG, event 1, two-site model” value is -46.4 ± 0.711 kJ/mol; the “ΔG, event 2, two-site model” value was -39.5 ± 1.46 kJ/mol; the “ΔH, event 1, two-site model” value is -134 ± 4.69 kJ/mol; the “ΔH, event 2, two-site model” value was -20.2 ± 7.07 kJ/mol. Moreover, under setting [2], the Kd is 0.008 µM. The Kd under setting [3] is 0.136 µM.

B3: T2 EBNA2_348-422 SD: type 2 EBNA2 polypeptide 348–422 with an S409D mutation (protein)
chain: SMPQLSPVVSLHQGQGPENSPTPGPSTAGPVCRVTPSATPDISPIHEPESSDSEEPPFLFPDDWYPPTLEPAELD
modifications: left off: His6, N-terminal, cleaved
notes: type 2 EBNA2 polypeptide 348–422 with an S409D mutation
Regarding B3, the “-TΔS, event 1, two-site model” value turned out to be 48.5 ± 1.3 kJ/mol; the “-TΔS, event 2, two-site model” value was 1.97 ± 5.56 kJ/mol; the “n value, event 1, two-site model” value amounted to 0.22 ± 0.01; the “n value, event 2, two-site model” value is reported as 0.20 ± 0.00. For the same molecule, the “ΔG, event 1, two-site model” value is -46 ± 0.879 kJ/mol; the “ΔG, event 2, two-site model” value was -38.2 ± 0.33 kJ/mol; the “ΔH, event 1, two-site model” value is -95 ± 1.21 kJ/mol; the “ΔH, event 2, two-site model” value was -40.3 ± 5.52 kJ/mol. In addition, the Kd under setting [2] was 0.008 ± 0.003 µM. Moreover, the Kd under setting [3] was found to be 0.2 ± 0.026 µM.

B4: T2 EBNA2_348-422: type 2 EBNA2 polypeptide containing motif 1, 2 and 3, amino acids 348–422 (protein)
chain: SMPQLSPVVSLHQGQGPENSPTPGPSTAGPVCRVTPSATPDISPIHEPESSDSEEPPFLFPSDWYPPTLEPAELD
modifications: left off: His6, N-terminal, cleaved
For B4, the “-TΔS, event 1, two-site model” value turned out to be 96.7 ± 0.586 kJ/mol; the “-TΔS, event 2, two-site model” value is -33.6 ± 1.05 kJ/mol; the “n value, event 1, two-site model” value came out at 0.23 ± 0.01; the “n value, event 2, two-site model” value turned out to be 0.21 ± 0.00. Further, the “ΔG, event 1, two-site model” value was -46 ± 1.17 kJ/mol; the “ΔG, event 2, two-site model” value is -40.3 ± 0.669 kJ/mol; the “ΔH, event 1, two-site model” value is -143 ± 0.586 kJ/mol. Under setting [2], the Kd was found to be 0.009 µM. Further, the Kd under setting [3] worked out at 0.091 µM. For the same molecule, under setting [1], the “-TΔS, one-site model” value was determined as 188 kJ/mol and the “ΔG, one-site model” value was -34.3 ± 0.753 kJ/mol. Also, the “-TΔS, one-site model” value (25°C, pH 7.5, peptides 13 injections, polypeptides 19 injections, listed as T2 EBNA2 348-422) worked out at 188 ± 7.7 kJ/mol.

B5: EBNA2_348-422 SD + m3 mt: type 2 EBNA2 polypeptide 348–422 containing both the SD and motif 3 (ATAEA) mutations (protein)
chain: SMPQLSPVVSLHQGQGPENSPTPGPSTAGPVCRVTPSATPDISPIHEPESSDSEEPPFLFPDDWYPATAEAAELD
modifications: left off: His6, N-terminal, cleaved
notes: type 2 EBNA2 polypeptide 348–422 containing both the SD and motif 3 (ATAEA) mutations
B5: the “-TΔS, event 1, two-site model” value is 85.4 ± 9.37 kJ/mol; the “-TΔS, event 2, two-site model” value was -8.16 ± 8.79 kJ/mol; the “n value, event 1, two-site model” value came out at 0.20 ± 0.00; the “n value, event 2, two-site model” value is 0.19 ± 0.01. The “ΔG, event 1, two-site model” value is -40.2 ± 0.879 kJ/mol; the “ΔG, event 2, two-site model” value was -47.3 ± 0.502 kJ/mol; the “ΔH, event 1, two-site model” value is -133 ± 8.95 kJ/mol; the “ΔH, event 2, two-site model” value was -32 ± 7.91 kJ/mol. Further, the Kd under setting [2] was determined as 0.005 ± 0.001 µM. Further, the Kd under setting [3] worked out at 0.094 ± 0.028 µM.

B6: T2 EBNA2_348-422 motif 3 mt: T2 EBNA2_348-422 with motif 3 mutated from PTLEP to ATAEA (protein)
chain: SMPQLSPVVSLHQGQGPENSPTPGPSTAGPVCRVTPSATPDISPIHEPESSDSEEPPFLFPSDWYPATAEAAELD
modifications: left off: His6, N-terminal, cleaved
notes: T2 EBNA2_348-422 with motif 3 mutated from PTLEP to ATAEA
Take B6: under setting [1], the “-TΔS, one-site model” value worked out at 72 kJ/mol and the “ΔG, one-site model” value is -35.6 ± 0.29 kJ/mol. Besides, the “-TΔS, one-site model” value (25°C, pH 7.5, peptides 13 injections, polypeptides 19 injections, listed as T2 EBNA2 348-422 m3 mt) was determined as 72 ± 3.31 kJ/mol.

B7: T2 EBNA2_348-422 m3 T1: T2 EBNA2_348-422 with motif 3 PTLEP replaced with the type 1 sequence PSIDP (protein)
chain: SMPQLSPVVSLHQGQGPENSPTPGPSTAGPVCRVTPSATPDISPIHEPESSDSEEPPFLFPSDWYPPSIDPAELD
modifications: left off: His6, N-terminal, cleaved
For the molecule B7, under setting [1], the “-TΔS, one-site model” value stood at 81.6 ± 5.31 kJ/mol; the “ΔG, one-site model” value was -32.6 ± 0.17 kJ/mol; the “ΔH, one-site model” value is -114 ± 5.15 kJ/mol.
